Measurements taken from patent publication US20110178027A1 (SOCIETE DE COMMERCIALISATION DES PRODUITS DE LA RECHERCHE …, published 2011).
Values joined by “and” are separate entries in the source; they are usually repeats but may differ in a detail not shown here. Equal values may be shown once. No end group written: not given here.

T1: PC4 (UniProt Q6UW60 114-708, limits assumed)
T1 sequence (looked up): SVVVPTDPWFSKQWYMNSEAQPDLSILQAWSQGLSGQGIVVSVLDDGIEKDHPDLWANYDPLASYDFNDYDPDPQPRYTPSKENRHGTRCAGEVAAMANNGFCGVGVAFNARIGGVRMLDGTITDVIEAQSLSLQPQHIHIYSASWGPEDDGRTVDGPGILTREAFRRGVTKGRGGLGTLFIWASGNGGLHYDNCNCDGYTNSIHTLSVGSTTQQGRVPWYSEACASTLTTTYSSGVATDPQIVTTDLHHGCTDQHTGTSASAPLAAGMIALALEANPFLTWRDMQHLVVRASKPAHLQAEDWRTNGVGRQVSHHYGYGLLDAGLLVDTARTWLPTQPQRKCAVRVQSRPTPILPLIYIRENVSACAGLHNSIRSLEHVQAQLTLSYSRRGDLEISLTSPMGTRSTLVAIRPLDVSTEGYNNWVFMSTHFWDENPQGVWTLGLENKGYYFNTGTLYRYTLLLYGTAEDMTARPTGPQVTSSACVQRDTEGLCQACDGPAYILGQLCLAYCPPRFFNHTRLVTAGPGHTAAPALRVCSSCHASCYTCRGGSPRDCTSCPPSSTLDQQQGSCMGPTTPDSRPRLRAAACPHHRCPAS

T2: PC1/3 (UniProt P29120 111-753, limits assumed)
T2 sequence (looked up): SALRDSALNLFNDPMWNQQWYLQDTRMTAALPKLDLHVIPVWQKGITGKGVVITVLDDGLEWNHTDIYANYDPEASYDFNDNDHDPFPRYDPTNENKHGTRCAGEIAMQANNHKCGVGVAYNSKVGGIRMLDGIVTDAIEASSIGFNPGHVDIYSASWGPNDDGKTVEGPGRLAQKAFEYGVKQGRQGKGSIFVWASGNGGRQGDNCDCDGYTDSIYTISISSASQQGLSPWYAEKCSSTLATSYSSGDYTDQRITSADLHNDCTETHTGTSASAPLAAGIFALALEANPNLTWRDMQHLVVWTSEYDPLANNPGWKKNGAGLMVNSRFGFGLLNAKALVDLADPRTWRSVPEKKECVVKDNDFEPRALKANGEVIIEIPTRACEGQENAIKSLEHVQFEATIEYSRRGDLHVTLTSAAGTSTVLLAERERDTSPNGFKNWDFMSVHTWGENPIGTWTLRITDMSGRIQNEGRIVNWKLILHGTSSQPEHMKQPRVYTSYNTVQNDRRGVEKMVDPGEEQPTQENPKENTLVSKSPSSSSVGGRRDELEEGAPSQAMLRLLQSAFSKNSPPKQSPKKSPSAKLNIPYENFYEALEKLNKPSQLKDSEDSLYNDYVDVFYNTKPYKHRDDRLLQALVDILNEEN

T3: PC2 (UniProt P16519 110-638, limits assumed)
T3 sequence (looked up): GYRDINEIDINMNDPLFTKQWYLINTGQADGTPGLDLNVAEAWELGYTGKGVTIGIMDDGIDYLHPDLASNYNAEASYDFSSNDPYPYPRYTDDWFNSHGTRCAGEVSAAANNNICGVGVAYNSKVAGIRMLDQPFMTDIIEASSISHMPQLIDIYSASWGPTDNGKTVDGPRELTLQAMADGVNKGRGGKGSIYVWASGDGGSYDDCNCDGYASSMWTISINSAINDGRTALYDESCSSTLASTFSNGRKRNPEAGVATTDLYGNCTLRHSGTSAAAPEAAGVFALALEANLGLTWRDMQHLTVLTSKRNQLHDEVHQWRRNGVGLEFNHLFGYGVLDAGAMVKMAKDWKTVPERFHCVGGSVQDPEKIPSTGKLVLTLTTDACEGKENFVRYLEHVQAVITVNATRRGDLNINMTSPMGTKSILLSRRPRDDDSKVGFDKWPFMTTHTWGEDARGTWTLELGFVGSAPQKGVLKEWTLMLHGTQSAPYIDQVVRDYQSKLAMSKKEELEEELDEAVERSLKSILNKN

T4: PC5/6 (UniProt Q92824-2 115-913, limits assumed)
T4 sequence (looked up): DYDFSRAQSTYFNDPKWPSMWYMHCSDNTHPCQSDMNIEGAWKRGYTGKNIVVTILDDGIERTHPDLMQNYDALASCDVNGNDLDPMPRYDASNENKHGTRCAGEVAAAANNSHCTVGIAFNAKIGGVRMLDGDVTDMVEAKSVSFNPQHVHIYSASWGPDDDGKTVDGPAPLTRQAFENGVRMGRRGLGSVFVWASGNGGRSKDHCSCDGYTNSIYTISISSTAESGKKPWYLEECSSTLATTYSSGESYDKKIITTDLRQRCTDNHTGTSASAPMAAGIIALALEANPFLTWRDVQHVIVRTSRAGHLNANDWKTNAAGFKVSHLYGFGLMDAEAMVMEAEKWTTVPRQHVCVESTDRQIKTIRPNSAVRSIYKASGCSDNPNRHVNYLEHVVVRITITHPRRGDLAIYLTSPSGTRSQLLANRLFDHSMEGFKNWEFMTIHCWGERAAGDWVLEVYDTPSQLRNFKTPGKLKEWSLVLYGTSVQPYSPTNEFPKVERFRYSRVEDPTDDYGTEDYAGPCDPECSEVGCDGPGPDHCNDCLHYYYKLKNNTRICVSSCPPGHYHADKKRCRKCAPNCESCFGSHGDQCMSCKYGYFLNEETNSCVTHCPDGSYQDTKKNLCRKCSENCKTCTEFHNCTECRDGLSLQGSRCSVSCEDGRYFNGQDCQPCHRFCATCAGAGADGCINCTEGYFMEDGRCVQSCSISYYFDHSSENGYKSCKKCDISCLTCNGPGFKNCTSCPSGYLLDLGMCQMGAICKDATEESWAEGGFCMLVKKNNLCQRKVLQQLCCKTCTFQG

T5: PC7 (UniProt Q16549 142-667, limits assumed)
T5 sequence (looked up): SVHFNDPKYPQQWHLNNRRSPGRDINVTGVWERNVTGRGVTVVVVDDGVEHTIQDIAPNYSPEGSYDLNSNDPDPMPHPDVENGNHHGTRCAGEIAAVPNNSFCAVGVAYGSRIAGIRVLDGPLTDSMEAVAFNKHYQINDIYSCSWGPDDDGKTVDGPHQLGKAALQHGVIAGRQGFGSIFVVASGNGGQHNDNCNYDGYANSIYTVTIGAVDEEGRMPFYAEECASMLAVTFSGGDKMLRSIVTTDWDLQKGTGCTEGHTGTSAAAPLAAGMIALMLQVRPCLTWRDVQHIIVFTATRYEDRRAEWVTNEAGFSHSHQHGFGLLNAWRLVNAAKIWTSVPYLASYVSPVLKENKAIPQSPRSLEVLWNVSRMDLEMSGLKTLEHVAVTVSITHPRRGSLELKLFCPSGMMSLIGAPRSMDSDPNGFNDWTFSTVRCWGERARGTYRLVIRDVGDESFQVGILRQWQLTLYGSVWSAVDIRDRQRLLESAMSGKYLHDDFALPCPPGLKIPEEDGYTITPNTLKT

T6: PACE4 (UniProt P29122 150-969, limits assumed)
T6 sequence (looked up): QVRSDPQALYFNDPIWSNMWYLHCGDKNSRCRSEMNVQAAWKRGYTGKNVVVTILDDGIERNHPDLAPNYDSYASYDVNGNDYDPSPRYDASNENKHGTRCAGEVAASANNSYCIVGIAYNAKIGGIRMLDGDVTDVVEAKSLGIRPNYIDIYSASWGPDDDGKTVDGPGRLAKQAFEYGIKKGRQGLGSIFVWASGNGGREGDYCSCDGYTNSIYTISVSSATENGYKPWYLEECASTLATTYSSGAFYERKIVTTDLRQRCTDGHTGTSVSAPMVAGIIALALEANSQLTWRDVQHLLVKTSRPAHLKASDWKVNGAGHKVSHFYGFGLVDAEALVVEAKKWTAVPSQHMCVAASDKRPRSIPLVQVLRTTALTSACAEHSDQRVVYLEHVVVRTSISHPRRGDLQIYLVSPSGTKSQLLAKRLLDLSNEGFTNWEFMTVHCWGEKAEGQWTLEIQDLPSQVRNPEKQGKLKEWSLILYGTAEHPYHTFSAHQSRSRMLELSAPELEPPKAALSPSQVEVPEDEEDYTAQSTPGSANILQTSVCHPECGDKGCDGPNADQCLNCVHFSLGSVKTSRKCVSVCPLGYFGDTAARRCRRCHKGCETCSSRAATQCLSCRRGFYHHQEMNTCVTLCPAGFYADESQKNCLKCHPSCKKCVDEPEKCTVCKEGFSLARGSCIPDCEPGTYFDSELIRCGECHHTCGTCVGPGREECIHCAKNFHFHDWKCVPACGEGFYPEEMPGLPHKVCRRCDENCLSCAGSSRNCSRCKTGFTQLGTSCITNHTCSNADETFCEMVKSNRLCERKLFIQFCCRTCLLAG


Assays:
PC4 = molecular target: T1, PC4; assay: enzyme inhibition assay, fluorogenic substrate PyrRTKR-MCA
Description: (§1) Enzyme inhibition assays for furin (FIG. 5D) were performed in 100 mM Hepes pH 7.5, 1 mM CaCl₂, 1 mM β-mercaptoethanol, 0.5 μg/μL BSA. Assays for PC2 (FIG. 5E) were performed in 20 mM Bis-Tris pH 5.7, 1 mM CaCl₂, 0.1% Brij-30. Assays for PC1/3, PC4, PACE4, PC5/6 and PC7 (FIGS. 5F, G, A, B and C respectively) were performed in 20 mM Bis-T is pH 6.5, 1 mM CaCl₂. […] Inhibitory peptides were added to the enzymes at decreasing concentrations from 100 μM to 50 nM and incubated 5 minutes prior to the addition of substrate. […] Each Kᵢ value is the mean of 2 to 10 independent experiments.

PC1/3 = molecular target: T2, PC1/3; assay: as above
Description: as §1

PC2 = molecular target: T3, PC2; assay: as above
Description: as §1

PC5/6 = molecular target: T4, PC5/6; assay: as above
Description: as §1

PC7 = molecular target: T5, PC7; assay: as above
Description: as §1

PACE4 [1] = molecular target: T6, PACE4; assay: as above
Description: as §1

furin = furin (UniProt P09958 108-715, limits assumed); assay: as above
Chain of furin (P09958 108-715 limits assumed): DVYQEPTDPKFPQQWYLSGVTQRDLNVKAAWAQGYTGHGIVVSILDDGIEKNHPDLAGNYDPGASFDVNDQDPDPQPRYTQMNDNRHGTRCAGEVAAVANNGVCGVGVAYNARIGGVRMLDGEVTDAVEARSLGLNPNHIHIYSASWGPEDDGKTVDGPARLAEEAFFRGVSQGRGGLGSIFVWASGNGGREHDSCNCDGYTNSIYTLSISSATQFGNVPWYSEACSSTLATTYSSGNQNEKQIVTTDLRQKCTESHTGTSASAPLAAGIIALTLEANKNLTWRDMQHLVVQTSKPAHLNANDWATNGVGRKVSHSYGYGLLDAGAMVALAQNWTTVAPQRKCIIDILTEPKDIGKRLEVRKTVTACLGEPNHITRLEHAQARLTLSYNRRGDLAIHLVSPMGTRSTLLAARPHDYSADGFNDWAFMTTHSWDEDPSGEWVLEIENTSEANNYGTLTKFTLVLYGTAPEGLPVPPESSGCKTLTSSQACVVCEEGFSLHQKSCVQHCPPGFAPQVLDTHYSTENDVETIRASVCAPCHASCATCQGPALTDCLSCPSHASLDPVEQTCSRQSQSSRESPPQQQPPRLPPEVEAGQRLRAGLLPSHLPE
Description: as §1

PACE4 [2] = molecular target: T6, PACE4; assay: enzyme inhibition assay, ratio of Ki values against the other PCs
Description: as §1

Ki (PC4) [nM] | Ki (PC1/3) [nM] | Ki (PC2) [µM] | Ki (PC5/6) [nM] | Ki (PC7) | Ki (PACE4 [1]) | Ki (furin) [nM] | fold more effective on PACE4 than the other PCs (PACE4 [2]) [fold] | Binder
164 |  |  |  |  |  |  |  | LLLLLRVKR-NH2 (also called 5 Leu; multi-leucine peptide containing five leucines) [LLLLLRVKR-NH2]
205 | 454 | 18.8 | 245 | 54 nM and 50 nM | 6 nM and 5.5 nM and 5 nM | 114 | ≥ 9 | LLLLRVKR-NH2 (also called 4 Leu; Multi-Leu (ML)) [LLLLRVKR-NH2]
